# Reference: article PMC8750366, “Role of the Redox State of Human Peroxiredoxin-5 on Its TLR4-Activating DAMP Function” (Antioxidants, 2021)
# Where “and” joins values, the source holds several entries; their conditions need not be identical. Equal values may be shown once.
# B1: chemically reduced and alkylated recombinant human peroxiredoxin-5 (enzyme)
# chain: APIKVGDAIPAVEVFEGEPGNKVNLAELFKGKKGVLFGVPGAFTPGCSKTHLPGFVEQAEALKAKGVQVVACLSVNDAFVTGEWGRAHKAEGKVRLLADPTGAFGKETDLLLDDSLVSIFGNRRLKRFSMVVQDGIVKALNVEPDGTGLTCSLAPNIISQL
# modifications: cysteine thiols alkylated with iodoacetamide (carbamidomethyl groups), more likely on the two Cys involved in the disulfide bond (C47, C151)
# notes: human peroxiredoxin-5 (PRDX5), wild type, same construct as m1; Made from m1 by chemical treatment; Mainly a dimer by SEC-MALS; also called r/aPRDX5; reduced PRDX5; source: dsPRDX5 (E. coli M15, purified) treated with 10 mM DTT, then 55 mM iodoacetamide, ultra-filtered; not shown: His6, N-terminal, kept
# B2: recombinant wild-type N-terminal 6xHis-tagged human peroxiredoxin-5, disulfide (oxidized) form (enzyme)
# chain: B1 chain
# modifications: disulfide bridge between C47 and C151
# notes: human peroxiredoxin-5 (PRDX5), wild type; calculated mass with reduced thiols 18,297.81 Da; Mainly a dimer by SEC-MALS, with ~30% monomers; also called dsPRDX5; PRDX5; source: E. coli M15 (pRep4), pQE-30, purified (Ni-NTA), dialyzed against PBS; not shown: His6, N-terminal, kept
# B3: hyperoxidized recombinant human peroxiredoxin-5 (enzyme)
# chain: B1 chain
# modifications: Cys sulfinic (-SO2H) and/or sulfonic (-SO3H) acids; only partially hyperoxidized (~42% of species), a proportion of species keeps the disulfide bridge
# notes: human peroxiredoxin-5 (PRDX5), wild type, same construct as m1; Made from m1 by chemical treatment; a mix of species; Mainly a dimer by SEC-MALS; also called s/sPRDX5; hyperoxidized PRDX5; source: dsPRDX5 (E. coli M15, purified) treated with 10 mM DTT, then 5 mM H2O2, ultra-filtered; not shown: His6, N-terminal, kept
# Tests used:
# [1] = target: recombinant human TLR4 (R&D Systems) (human) (UniProt O00206); assay: AFM single-molecule force spectroscopy; PRDX5 grafted on the AFM tip by a PEG24 linker, TLR4 covalently attached to an alkanethiol SAM on gold (NHS/EDC); PBS, ~25 °C; retraction speeds 100 nm/s to 10 µm/s; Bell-Evans fit
# [2] = target: TLR4-YFP stably expressed on HEK293 MD2-CD14 cells (UniProt O00206); assay: flow cytometry on cells; living HEK293 MD2-CD14 TLR4 cells exposed to 1 µM of the PRDX5 redox forms or increasing dsPRDX5 in DMEM, 40 min on ice; detected with anti-PRDX5 serum and Alexa Fluor 647 Plus secondary antibody; MFI of untreated cells subtracted
# [3] = target: C47S mutant N-terminal 6xHis-tagged human peroxiredoxin-5 (human); assay: SEC-MALS; 50 µL loaded on Superdex 200 Increase 10/300 GL (and Superdex 75 Increase, data not shown), PBS running buffer pH 7.4; Zimm fit
# [4] = target: TLR4-YFP stably expressed on HEK293 MD2-CD14 cells (UniProt O00206)
# [5] = target: the molecule itself; assay: SEC-MALS; 50 µL loaded on Superdex 200 Increase 10/300 GL (and Superdex 75 Increase, data not shown), PBS running buffer pH 7.4; Zimm fit
# [6] = target: TLR4-YFP stably expressed on HEK293 MD2-CD14 cells (UniProt O00206 24-839); assay: cell-based or functional assay
# TLR4-YFP stably expressed on HEK293 MD2-CD14 cells (UniProt O00206 24-839), sequence (O00206 24-839): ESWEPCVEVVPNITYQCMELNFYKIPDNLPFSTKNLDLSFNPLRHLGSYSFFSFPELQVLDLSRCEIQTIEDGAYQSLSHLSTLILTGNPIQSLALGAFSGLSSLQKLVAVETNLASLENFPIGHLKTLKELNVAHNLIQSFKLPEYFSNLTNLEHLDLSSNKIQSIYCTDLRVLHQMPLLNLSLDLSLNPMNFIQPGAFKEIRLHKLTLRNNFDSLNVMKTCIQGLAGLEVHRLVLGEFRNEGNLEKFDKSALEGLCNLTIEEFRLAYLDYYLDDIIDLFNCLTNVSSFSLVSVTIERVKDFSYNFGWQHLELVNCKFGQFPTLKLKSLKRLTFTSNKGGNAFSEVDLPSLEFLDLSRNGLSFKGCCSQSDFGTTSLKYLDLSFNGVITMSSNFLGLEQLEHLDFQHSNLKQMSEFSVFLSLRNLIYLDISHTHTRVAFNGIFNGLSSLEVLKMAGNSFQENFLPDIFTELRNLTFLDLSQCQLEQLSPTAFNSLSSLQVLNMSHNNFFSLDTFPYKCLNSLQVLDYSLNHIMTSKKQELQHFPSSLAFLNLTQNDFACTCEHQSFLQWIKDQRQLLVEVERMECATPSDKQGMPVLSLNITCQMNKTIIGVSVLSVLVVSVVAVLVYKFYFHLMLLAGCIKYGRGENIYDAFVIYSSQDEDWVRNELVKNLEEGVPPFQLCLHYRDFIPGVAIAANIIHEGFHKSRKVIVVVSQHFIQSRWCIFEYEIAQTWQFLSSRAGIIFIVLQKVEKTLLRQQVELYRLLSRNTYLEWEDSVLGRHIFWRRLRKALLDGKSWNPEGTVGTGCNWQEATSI
# recombinant human TLR4 (R&D Systems) (human), sequence (O00206 24-631): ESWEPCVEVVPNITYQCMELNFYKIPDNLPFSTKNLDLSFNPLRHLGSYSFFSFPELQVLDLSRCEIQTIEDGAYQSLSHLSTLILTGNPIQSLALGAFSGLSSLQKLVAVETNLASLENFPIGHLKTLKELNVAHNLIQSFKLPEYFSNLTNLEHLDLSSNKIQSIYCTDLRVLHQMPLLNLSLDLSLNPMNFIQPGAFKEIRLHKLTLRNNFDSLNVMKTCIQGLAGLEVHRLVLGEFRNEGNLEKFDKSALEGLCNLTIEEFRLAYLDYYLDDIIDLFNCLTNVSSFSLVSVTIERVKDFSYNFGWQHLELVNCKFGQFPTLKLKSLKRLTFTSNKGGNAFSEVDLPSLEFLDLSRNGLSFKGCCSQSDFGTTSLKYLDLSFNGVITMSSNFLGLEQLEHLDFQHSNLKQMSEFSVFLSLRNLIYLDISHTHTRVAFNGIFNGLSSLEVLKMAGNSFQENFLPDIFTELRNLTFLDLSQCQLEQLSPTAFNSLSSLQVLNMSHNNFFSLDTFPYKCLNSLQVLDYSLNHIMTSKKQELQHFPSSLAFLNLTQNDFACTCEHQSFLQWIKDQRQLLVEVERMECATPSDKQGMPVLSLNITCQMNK
# TLR4-YFP stably expressed on HEK293 MD2-CD14 cells (UniProt O00206), sequence (O00206 24-839): as the sequence (O00206 24-839) above
Molecule,koff [1],fold decrease in binding propensity compared to dsPRDX5 [2],stoichiometry N [3],"IL-8 secretion from HEK293 MD2-CD14 TLR4 cells, 2 µM protein, 16 h, ELISA [4]",stoichiometry N [5],"IL-8 secretion from HEK293 MD2-CD14 TLR4 cells, 2 µM protein, 16 h, ELISA [6]"
C47S mutant N-terminal 6xHis-tagged human peroxiredoxin-5 (enzyme),1.97 s⁻¹,3 fold,2 and 4,893 pg/mL,–,–
"recombinant wild-type N-terminal 6xHis-tagged human peroxiredoxin-5, disulfide (oxidized) form (from UniProt P30044 54-214)",1.02 s⁻¹,–,–,–,–,–
B1,2.47 s⁻¹,–,–,–,2,2440 pg/mL
B2,–,–,–,–,2,4610 pg/mL
B3,–,–,–,–,2 and 4,1450 pg/mL
